Measurements as given in US20240279345A1, “ALPHA 5 BETA 1 INTEGRIN BINDING AGENTS AND USES THEREOF” (PASITHEA THERAPEUTICS CORP., priority 2021, published 2024).

Tests used:
[1] = biological target: rh-α5β1 protein bound to human FN protein (Homo sapiens, UniProt P05556+P08648); test: SPR dissociation of rh-α5β1 bound to FN; assay type: biochemical; conditions: 1 μM antibody injected for 250s after 400 nM rh-α5β1; 25° C.
Method: Surface Plasmon Resonance (SPR) and a cell-based assay were used to test the effect of the antibodies on the dissociation of rh-α5β1 protein bound to human FN protein. The antibodies tested are representatives of the two groups of antibodies identified in Example 6 that define two different epitope binding groups and have distinct ligand blocking properties. […] In addition, the small molecule antagonist cyclic RGD (cRGD; Creative-Peptides, Shirley, New York, 11967, cat. no. CP22175) was tested as a comparator that inhibits α5β1 integrin binding to FN by competing at the ligand binding pocket.
Description of the SPR method used: FN protein dissolved in water was manually printed onto the bare gold-coated (thickness 47 nm) PlexArray Nanocapture Sensor Chip (Plexera Bioscience, Seattle, WA) at 40% humidity. The chip was incubated in 80% humidity at 4° C. for overnight and rinsed with 10×PBST (0.1M phosphate buffer, 1.54M NaCl, pH7.4, 0.5% Tween20) for 10 minutes (min), 1×PBST (0.01M phosphate buffer pH7.4, 0.154M NaCl, 0.05% Tween20) for 10 min, and deionized water twice for 10 min. The chip was then blocked with 5% (w/v) non-fat milk in water overnight, and washed with 10×PBST for 10 min, 1×PBST for 10 min, and deionized water twice for 10 min before being dried under a stream of nitrogen prior to use. SPR measurements were performed using PlexArray HT (Plexera Bioscience, Seattle, WA), a high-throughput surface plasmon resonance imaging (SPRi) platform. Collimated light (660 nm) passes through the coupling prism, reflects off the SPR-active gold surface, and is received by the CCD camera. Buffers and samples were injected by a non-pulsatile piston pump into the 30 μL flow cell that was mounted on the coupling prim. […] SPR binding responses (a.u.) were recorded and plotted over time.

U87MG cells = test: Cellular detachment of U87MG cells from FN coated plates; assay type: cell-based; conditions: antibodies 2.0-0.016 μg/mL, cRGD 20-0.16 μM; 1 hour and 3 hours
Method: The A-15B08 and A2-7A05 antibodies and cRGD were also tested for their ability to induce dissociation of cellular α5β1 integrin from FN. U87MG cells (HTB-14™, ATCC, Manassas, VA) which were originally derived from a Glioblastoma tumor, are known to express α5β1 integrin, and adhere to FN coated plates. After an overnight incubation on FN coated plates, the U87MG cells formed a loosely packed monolayer and have extended spindle shapes. If the cells are induced to detach from the plates, by trypsin for example, the attachment points are released, and the cells become round. This type of change in morphology was used to assess whether the antibodies and the small molecule inhibitor cRGD can induce U87MG cells to dissociate from FN coated plates.
The following method was used to assess cellular detachment activity: A 96-well cell culture plate (Thermo Fisher Scientific, Waltham, MA, cat. no. 165306) was coated with FN (Human Fibronectin, R&D Systems, Minneapolis, MN 55413, cat. no. 1918-FN) by incubation of 50 uL per well 32 μg/mL FN in 1×PBS for 1 hour at 37° C., then washed 2× with EMEM media (ATCC, Manassas, VA, cat. no. 30-2003) supplemented with 10% Fetal Bovine Serum (FBS; ATCC, Manassas, VA, cat. no. 30-2021). U87MG cells were plated at 20,000 cells per well in EMEM media+10% FBS overnight to allow for maximum adherence. The next day the media was replaced with fresh media that included a 1:5 dilution series of antibodies A-15B08, A2-7A05 or isotype control IgG4 at concentrations of 2.0, 0.4, 0.08 and 0.016 μg/mL or cRGD at 20, 4, 0.8 and 0.16 μM. All tests were run in duplicate. Cell morphology was assessed, and images were captured using a 10× objective of an ECHO Rebel light microscope (ECHO, San Diego, CA).

[2] = biological target: T1, binding of α5β1 integrin to fibronectin (FN) (Homo sapiens, UniProt P05556+P08648); test: Quantitative FN inhibition (FN-blocking) assay in ELISA format; assay type: biochemical; conditions: by ELISA
T1 construct: purchased Acro Biosystems IT1-H52W5
T1 sequence (P08648 42-894 limits assumed): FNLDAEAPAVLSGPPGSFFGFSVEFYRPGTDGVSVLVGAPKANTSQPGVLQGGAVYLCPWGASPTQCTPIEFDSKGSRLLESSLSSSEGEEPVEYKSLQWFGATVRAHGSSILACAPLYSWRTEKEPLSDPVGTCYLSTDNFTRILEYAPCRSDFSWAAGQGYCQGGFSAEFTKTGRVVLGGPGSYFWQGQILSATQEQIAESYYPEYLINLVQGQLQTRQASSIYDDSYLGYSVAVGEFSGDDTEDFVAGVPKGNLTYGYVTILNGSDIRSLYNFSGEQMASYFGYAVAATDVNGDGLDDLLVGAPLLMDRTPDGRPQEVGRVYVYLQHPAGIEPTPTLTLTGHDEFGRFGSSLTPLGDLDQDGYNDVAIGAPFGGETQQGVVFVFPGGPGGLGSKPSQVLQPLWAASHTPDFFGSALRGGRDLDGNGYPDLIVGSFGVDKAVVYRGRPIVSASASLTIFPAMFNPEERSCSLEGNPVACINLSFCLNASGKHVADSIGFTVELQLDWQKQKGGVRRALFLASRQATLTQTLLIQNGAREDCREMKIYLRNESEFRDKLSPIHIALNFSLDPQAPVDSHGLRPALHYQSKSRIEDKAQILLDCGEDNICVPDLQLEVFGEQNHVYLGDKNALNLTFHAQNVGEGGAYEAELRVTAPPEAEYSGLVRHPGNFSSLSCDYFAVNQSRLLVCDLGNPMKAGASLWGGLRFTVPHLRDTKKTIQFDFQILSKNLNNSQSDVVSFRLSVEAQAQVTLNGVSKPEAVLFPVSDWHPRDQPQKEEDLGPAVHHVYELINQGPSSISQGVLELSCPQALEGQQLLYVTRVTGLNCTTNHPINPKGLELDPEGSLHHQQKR
T1 sequence (P08648 895-995 limits assumed): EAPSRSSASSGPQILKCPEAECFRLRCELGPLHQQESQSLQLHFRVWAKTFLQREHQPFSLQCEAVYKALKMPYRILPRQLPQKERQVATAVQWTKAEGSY
T1 sequence (P05556 21-728 limits assumed): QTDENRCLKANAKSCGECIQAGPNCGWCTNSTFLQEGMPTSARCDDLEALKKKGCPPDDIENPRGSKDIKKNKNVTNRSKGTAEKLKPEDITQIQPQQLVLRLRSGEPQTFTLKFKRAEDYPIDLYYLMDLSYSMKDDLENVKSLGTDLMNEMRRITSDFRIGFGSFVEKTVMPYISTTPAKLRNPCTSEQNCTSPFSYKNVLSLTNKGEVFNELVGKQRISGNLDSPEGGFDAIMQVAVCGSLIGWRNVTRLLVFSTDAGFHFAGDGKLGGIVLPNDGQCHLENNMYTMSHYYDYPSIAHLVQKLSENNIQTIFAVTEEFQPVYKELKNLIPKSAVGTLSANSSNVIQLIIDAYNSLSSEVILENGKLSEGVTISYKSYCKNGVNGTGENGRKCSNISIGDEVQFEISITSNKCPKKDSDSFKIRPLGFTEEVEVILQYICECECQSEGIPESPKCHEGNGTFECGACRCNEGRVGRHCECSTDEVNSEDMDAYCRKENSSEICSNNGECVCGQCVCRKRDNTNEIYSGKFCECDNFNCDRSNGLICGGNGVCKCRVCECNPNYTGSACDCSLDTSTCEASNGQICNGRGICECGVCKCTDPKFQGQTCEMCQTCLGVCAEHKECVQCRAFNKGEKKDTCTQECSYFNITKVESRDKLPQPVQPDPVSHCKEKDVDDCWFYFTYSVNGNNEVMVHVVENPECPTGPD
Description: To determine whether the 9 unique hybridoma clones selected as described in Example 4 were able to inhibit the binding of α5β1 integrin to fibronectin (FN), the antibodies were first purified from hybridoma supernatants by Protein A chromatography, protein concentrations measured by BCA assay (Pierce™ BCA Protein Assay Kit; Thermo Fisher Scientific, Waltham, MA, cat. no. 23225) and then tested in a quantitative FN inhibition assay in an ELISA format.
Immulon4 HBX ELISA 96-well plates were coated with FN by incubation overnight at 4° C. with 2.5 μg/mL human FN (R&D Systems, Minneapolis, MN 55413, cat. no. 1918-FN) in 1×PBS (0.01M phosphate buffer and 0.154M NaCl, pH 7.4). Plates were then washed 3 times with Wash Buffer (1× Tris Buffered Saline containing 0.05% Tween20), blocked with 2% BSA in 1×TBS for 2 hours at room temperature (RT). Antibodies were diluted in Standard Diluent (2% BSA, 1×TBS, 0.05% Tween20) containing 0.1 μg/mL rh-α5β1-6×His tagged protein (Acro Biosystems, Newark, DE, cat. no. IT1-H52W5), to generate an 11 point 1:3 antibody dilution series ranging from 10,000 ng/mL to 0.17 ng/mL. Isotype control antibody (Control Ab; Ms IgG2a EMD Millipore Corp, Billerica, MA, cat. no. PP102) was used to normalize data across different assay runs. For the assays, 100 uL of the antibody dilution series/His-tagged-α5β1 mixture was added to the wells after the blocking solution was removed and wells were washed 3 times. Following 1 hour at RT, the wells were washed 3 times, incubated with biotinylated Anti-6×His-Tag Ab (Invitrogen, Carlsbad, CA, cat. no. MAI-21315-BTIN) at 1:1000 in Standard Diluent for 1 hour, washed 3 times, incubated for 30 minutes with poly-HRP Streptavidin (Thermo Fisher Scientific, Waltham, MA, cat. no. N200), washed 4 times, incubated with TMB substrate (Thermo Fisher Scientific, Waltham, MA, cat. no. N301) for 2-5 minutes, followed by addition of ELISA Stop Solution (Invitrogen, Carlsbad, CA, cat. no. SS04). Absorbance 450 nm was measured. Data points were normalized to the isotype Control Ab values at each concentration and reported as % Absorbance 450 nm normalized to Control Ab. Non-linear regression analysis was used to fit curves (4-parameter) to the data using GraphPad Prism version 9.0.2 (GraphPad Software, LLC, San Diego, CA).
Freeze-thaw stability was tested on a small aliquot of each chimera antibody by overnight storage at −80° C. followed by thaw on ice, repeated three times. […] IC50s were calculated by non-linear regression analysis curve-fitting (4-parameter) of the ELISA data (FIG. 5) using GraphPad Prism version 9.0.2 (GraphPad Software, LLC, San Diego, CA). […]

rh-α5β1 = rh-α5β1 (Homo sapiens, UniProt P05556+P08648); test: Competition binding studies by Biolayer Interferometry (epitope groups); conditions: for Response (nm) / % Response: secondary mAb pre-mixed with 20 nM rh-α5β1; for % Response: relative to antigen alone
Sequence of rh-α5β1 (P08648 42-894 limits assumed): as the sequence (P08648 42-894 limits assumed) above
Sequence of rh-α5β1 (P08648 895-995 limits assumed): as the sequence (P08648 895-995 limits assumed) above
Sequence of rh-α5β1 (P05556 21-728 limits assumed): as the sequence (P05556 21-728 limits assumed) above
Method: Epitope analysis via competition binding studies was performed using Biolayer Interferometry (BLI) on the 6 antibodies selected as described in Example 5. The anti-α5β1 FN blocking antibodies A2-7A05, C-14D12 and A-15B08 were immobilized on sensors and incubated with each of the other antibodies that had been preincubated with rh-α5β1, to determine whether this antibody-antigen association prevents or allows binding to the antibody on the sensor. The magnitude of observed binding (response) was compared to binding of antigen alone under the same conditions. If the overall response was greater than 120% of antigen binding alone, then the antibodies can pair with each other. If response was less than 80% of response of antigen binding alone, then the antibodies block each other. The protocol was as follows: preincubate the panel of antibodies with antigen (1 hr). Equilibrate the sensor (30 seconds (s))-->Load lead Ab on the sensor (700s)--->Quench (480s)--->Read baseline (480s)-->measure preincubated Ab+Ag association with loaded sensor (600s).

[3] = biological target: T2, rh-α5β1 in active conformation (binding to 12G10) (Homo sapiens, UniProt P05556+P08648); test: 12G10 conformation assay (α5β1 integrin binding to 12G10); conditions: human IgG4 chimeric antibodies; 0.5 mM MnCl2
T2 construct: purchased Acro Biosystems IT1-H52W5
T2 sequence (P08648 42-894 limits assumed): as the sequence (P08648 42-894 limits assumed) above
T2 sequence (P08648 895-995 limits assumed): as the sequence (P08648 895-995 limits assumed) above
T2 sequence (P05556 21-728 limits assumed): as the sequence (P05556 21-728 limits assumed) above
Method: A Nunc MaxiSorp Flat-Bottom 96-well plate (Invitrogen, Waltham, MA, cat. no. 44-2404-21) was coated with 12G10 antibody at 2 μg/mL in 0.2M carbonate-bicarbonate buffer, pH9.4 (Thermo Scientific, Rockford, IL, cat. No. 28382) by incubation overnight at 4° C. Plates were then washed 3 times with Wash Buffer (1× Tris Buffered Saline containing 0.05% Tween20), then blocked with 2% BSA in 1×TBS for 2 hours at room temperature (RT). The human IgG4 chimeric versions of the antibodies were diluted in Standard Diluent (2% BSA, 1×TBS, 0.05% Tween20) containing 0.05 μg/mL rh-α5β1-6×His tagged protein (Acro Biosystems, Newark, DE, cat. no. IT1-H52W5) and 0.5 mM MnCl2 (TEKnova, Hollister, CA, cat. no. M0350) to generate a 7 point 1:5 antibody dilution series ranging from 10,000 ng/mL to 0.64 ng/mL. In addition to human IgG4 chimeric antibodies A-15B08, C-14D12 and A2-7A05, three other antibodies tested included IgG4 isotype control (human IgG4, Kappa, anti-fluorescein Ab00102-13.0, Absolute Antibody, Wilton, UK), anti-integrin alpha-5 clone SNAKA51 (MilliporeSigma, St. Louis, MO, cat. no. MABT201) known to induce integrin alpha-5 into an active conformation, and finally the 12G10 antibody itself which can directly compete with the 12G10 bound to the MaxiSorp plate. For the assays, 100 μL of the antibody dilution series, His-tagged-α5β1 mixture was added to the wells after the blocking solution was removed and wells were washed 3 times. […] Absorbance 450 nm was measured. Data points were normalized to the absorbance of the well containing no antibody for each dilution series and reported as Percent Binding. […]

Sequence of rh-α5β1 protein bound to human FN protein (P08648 42-894 limits assumed): as the sequence (P08648 42-894 limits assumed) above
Sequence of rh-α5β1 protein bound to human FN protein (P08648 895-995 limits assumed): as the sequence (P08648 895-995 limits assumed) above
Sequence of rh-α5β1 protein bound to human FN protein (P05556 21-728 limits assumed): as the sequence (P05556 21-728 limits assumed) above

Question: Which “effect on dissociation of rh-α5β1 protein bound to FN (SPR response)” value [1] does the source give for cyclic RGD [cRGD, reference compound] here?
Answer: The value was “did not have any discernable effect on the dissociation rate”.

Question: What about the “cellular detachment (cell rounding) of U87MG cells from FN coated plates” value (U87MG cells) of the same molecule?
Answer: Its value is “did not show significant cell detachment”.

B1: C-14D12: anti-α5β1 antibody, VH SEQ ID NO:109, VL SEQ ID NO:110; tested as mouse hybridoma antibody and as human IgG4 chimera (antibody, V domains shown)
VH: QVQLKESGPDLVAPSQSLSITCTVSGFSLTDYGVHWVRQPPGKGLEWLVVIWSDGSTTYNSALKSRLSITKDTSKRQVFLKMNSLQTDDTAMYYCARHAPSFIRYGSRYDALDYWGQGTSVTVSS
VL: QIVLTQSPAIMSASLGERVTLTCTASSSVTSSFLHWYQQKPGSSPKLWIYSTSNLASGVPARFSGSGSGTSYSLTISSMEAEDAATYYCHQYHRSPPTFGGGTKLEIK
modifications: C-14D12 VH Sequence; C-14D12 VL Sequence
notes: tested as mouse hybridoma antibody and as human IgG4 chimera
Question: B1 was tested. Which “class of FN binding blocker” value [2] did it give?
Answer: Its value is “strong blockers of FN binding”.

Question: What about the “binding of rh-α5β1 complexed with antibody to A2-7A05 on the sensor” value (rh-α5β1; antibody preincubated with rh-α5β1, A2-7A05 immobilized on sensor) of the same molecule?
Answer: Its value is “able to bind”.

Question: And the “binding of rh-α5β1 complexed with antibody to A-15B08 on the sensor” value (rh-α5β1; antibody preincubated with rh-α5β1, A-15B08 immobilized on sensor)?
Answer: The value was “not able to bind”.

Question: And the “Response (nm)” value (rh-α5β1; immobilized mAb A2-7A05)?
Answer: Its value is 0.11 nm.

Question: And the “% Response” value (rh-α5β1; immobilized mAb A2-7A05)?
Answer: The value was 309.19%.

Question: And the “Response (nm)” value (rh-α5β1; immobilized mAb A-15B08)?
Answer: The value was −0.15 nm.

Question: And the “% Response” value (rh-α5β1; immobilized mAb A-15B08)?
Answer: The value was −72.85%.

Question: And the “Response (nm)” value (rh-α5β1; immobilized mAb C-14D12)?
Answer: The value was −0.11 nm.

Question: And the “% Response” value (rh-α5β1; immobilized mAb C-14D12)?
Answer: Its value is −50.49%.

Question: What about the epitope group (rh-α5β1; two epitope groups among 6 antibodies) of the same molecule?
Answer: Its epitope group is “second group”.

Question: And the “reduction of α5β1 integrin binding to 12G10” value [3]?
Answer: Its value is “approximately 50%”.
